According to patent US20220411514A1, “ANTI-GAL3 ANTIBODIES AND METHODS OF USE FOR INSULIN RESISTANCE” (TrueBinding, Inc., priority 2021, published 2022):

What was measured:
[1] = tested on: GLUT4 translocation in L6 GLUT4myc myoblasts; test: Insulin-stimulated GLUT4 translocation with Gal3 and anti-Gal3 antibody; assay type: cell-based, rat; conditions: 30 μg/mL Gal3 pre-incubated with 60 μg/mL antibody, 100 nM insulin
Procedure: Rat L6 GLUT4myc myoblasts (Kerafast #ESK202-FP) express a Myc-tagged GLUT4 that can be detected with an anti-Myc antibody. These cells were grown in a 48-well plate in MEM u growth media (Gibco, #12-571-063)+10% fetal bovine serum (FBS; Corning #35-016-CV) until 90-95% confluence was reached. Cells were then washed in PBS and serum starved for 2 hours in MEM u growth media without FBS. Thirty (30) μg/mL recombinant human Gal3 (TrueBinding QCB200347) was pre-incubated with 60 μg/mL anti-Gal3 antibodies for 30 minutes before being added to the serum-starved cells for 1 hour at 37° C. At the end of incubation, half of the cells were treated with 100 nM insulin (Sigma-Aldrich #I5523-50MG) for 20 minutes while the other half acted as basal controls. After 20 minutes, cells were washed quickly with ice cold PBS twice, then incubated with 4% paraformaldehyde (Boster Bio #AR1068) for 10 minutes on ice followed by 10 minutes at room temperature. The cells were washed three times with PBS, then blocked with 0.5 mL 5% goat serum (Vector Laboratories #101098-382) in PBS for 15 minutes. After the blocking agent was aspirated from the cells, 1 μg/ml anti-Myc polyclonal antibody (Sigma-Aldrich #C-3956) in 5% goat serum was added for 1 hour. […] Primary antibody was aspirated away, and then cells washed 5 times with PBS. Next, cells (including background controls) were incubated with 1:1000 goat anti rabbit antibody secondary antibody (Abcam #Ab97051) in 5% Goat serum for 30 minutes at room temperature. After washing, cells were incubated with 400 μL of TMB (Thermo Scientific #PI34029) for 5 minutes, then 200 μL of 1N HCL (Avantor Performance #JT5620-2) was added to stop the reaction. 100 μL of the sample was transferred to a 96 well plate with duplicates transferred for each condition. Samples were read at 450 nm on a SpectraMax plate reader. […] The fold changes were plotted on GraphPad Prism and presented as mean (SEM) of the technical replicates. Statistical significance was determined using unpaired T-tests comparing samples treated with Gal3 and insulin with all other conditions.

[2] = biological target: T1, human Gal3 (Homo sapiens, UniProt P17931); test: Epitope binning, sandwich format, SPR Carterra LSA (Example 8); assay type: binding
T1 construct: 6xHis (linker-spaced) (C); purchased AcroBio (Acro Biosystems) GA3-H5129
Procedure: The epitope binning assay was done in a sandwich format on the high-throughput SPR-based Carterra LSA unit (CarterraBio, Salt Lake City, Utah). First, the purified antibodies were diluted to 10 μg/ml concentration in 10 mM NaOAc (pH 5.0) and then were covalently coupled via amine group to HC200M chip activated by EDC and S-NHS to immobilize antibodies to different positions of a 384-spot array. One hundred thirty-eight binning cycles were run on the array of immobilized antibodies. In each cycle, first, human Gal3 (AcroBio GA3-H5129) was injected over the entire array to bind to different antibodies (primary antibody), followed by one antibody (secondary antibody) selected among the panel of 150 anti-GAL3 antibodies tested. At the end of each cycle, the array was regenerated by 10 mM Glycine (pH 2.0) to remove bound antigen and secondary antibody from the array. The data analysis was done using the Epitope software by CarterraBio.

[3] = tested on: Human Gal3 peptides; test: Gal3 peptide binding ELISA (Example 8); conditions: antibody 5 μg/mL
Procedure: Gal3 peptide binding activity of additional exemplary anti-Gal3 antibodies was assessed with the same peptides as described in FIG. 18 (SEQ ID NOs: 3-26). Human Gal3 peptides (LifeTein, custom order) and human Gal3 proteins (R&D Systems, 8259-GA; TrueBinding, QCB200349) were diluted in PBS (Corning, 21-030-CM) to concentrations of at least 100 μg/mL (peptides) or 1 μg/mL (proteins), and added to the wells of several 96-well ELISA plates (Thermo Fisher, 44-2404-21). After incubating the plates at 4° C. overnight, the plates were washed three times with PBST (PBS with 0.05% Tween 20 [VWR, 0777]). The plates were then blocked for an hour with 2% BSA (EMD Millipore, 126609) in PBST at room temperature with gentle rocking. Thereafter, the 2% BSA in PBST was discarded and Gal3-binding antibodies (reformatted hIgG4 [S228P]) were diluted in 2% BSA in PBST to concentrations of 5 μg/mL and added to the wells. The plates were incubated for an hour at room temperature with gentle rocking and then washed three times with PBST. Afterwards, Peroxidase AffiniPure F(ab′)2 Fragment Goat Anti-Human IgG (H+L) polyclonal antibody (Jackson ImmunoResearch, 109-036-003), was diluted in 2% BSA in PBST (1:4000) and added to the wells. The plates were incubated for 1 hour at room temperature with gentle rocking and then washed three times with PBST. TMB substrate (Thermo Scientific, 34029) was then added to each well. The reaction was stopped with 1M HCl (JT Baker, 5620-02) and read using a plate reader (Molecular Devices) at absorbance of 450 nm.

T1 sequence (P17931 whole entry): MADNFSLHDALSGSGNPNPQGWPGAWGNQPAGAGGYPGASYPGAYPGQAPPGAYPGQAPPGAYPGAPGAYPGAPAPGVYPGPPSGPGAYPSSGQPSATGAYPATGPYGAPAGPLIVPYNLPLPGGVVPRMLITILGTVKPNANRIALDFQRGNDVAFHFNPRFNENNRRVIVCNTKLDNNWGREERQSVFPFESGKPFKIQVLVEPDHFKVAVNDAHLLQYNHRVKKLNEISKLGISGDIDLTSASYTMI

Molecule | binding to hGAL3 when immobilized on HC200M chip [2] | binding to any of the tested Gal3 peptides [3] | epitope bin (mutual competitive binding for Gal3) [2] | effect on Gal3 block of insulin-stimulated GLUT4 translocation [1]
2D10-hVH4-HVL1: anti-Gal3 antibody, VH SEQ ID NO: 806, VL SEQ ID NO: 821 (antibody, V domains shown, VH-80 Peptide Sequence; VL-78 Peptide Sequence) VH: QVQLVQSGAEVKKPGASVKVSCKASGYTFTDYYINWVRQAPGQRLEWMGWIYPGSQDTKYNEKFQGRVTLTVDTSASTAYMELSSLRSEDTAVYFCANYFGSSGWFFDVWGQGTMVTVSS VL: DIVMTQSPLSLPVTPGEPASISCRSSKSLLHSDGITYLYWYLQKPGQSPQLLIYRMSNRASGVPDRFSGSGSGTDFTLKISRVEAEDVGVYYCAQMIEFPLTFGQGTKLEIK |  |  |  | reduce the ability of Gal3 to block GLUT4 translocation
846T.4C9: anti-Gal3 antibody (antibody, V domains shown) VH: EVQLQQSGPELVKPGASVKMSCKASGYSFTNYIMHWVKQKPGQGLEWIGYINPYNDGTKYNEKFKGKATLTSDKSSSTAYMELSSLTSEDSAVYYCARLLFYYAMDYWGQGTSVTVSS VL: DILMTQTPSSMSVSLGDTVSITCHASQGISSNIGWLQQKPRKSFKGLIYYGTNLEDGVPSRFSGSGSGADYSLTISSLESEDFADYYCVQYDQFPWTFGGGTKLEIK | not bind | not found to bind |  | 
20H5.A3-VH6VL1: anti-Gal3 antibody, VH SEQ ID NO: 819, VL SEQ ID NO: 834 (antibody, V domains shown, VH-93 Peptide Sequence; VL-91 Peptide Sequence) VH: QVQLVQSGFELKKPGASVKISCKASGYAFTTYGMSWVRQAPGQGLEWMGWVNTYSGVPTSAQAFTGRFVFSLDTSVSTAYLQISSLKAEDTAVYYCARGPYAMDYWGQGTLVTVSS VL: DIQMTQSPSSLSASVGDRVTITCQASQDISNYLNWYQQKPGKAPKLLIYYTSSLLTGVPSRFSGSGSGTDYTFTISSLQPEDIATYYCQQYSKLPYTFGQGTKLEIK |  |  |  | reduce the ability of Gal3 to block insulin-dependent GLUT4 translocation
20H5.A3-VH6VL3: anti-Gal3 antibody, VH SEQ ID NO: 820, VL SEQ ID NO: 835 (antibody, V domains shown, VH-94 Peptide Sequence; VL-92 Peptide Sequence) VH: QVQLVQSGFELKKPGASVKISCKASGYAFTTYGMSWVRQAPGQGLEWMGWVNTYSGVPTSAQAFTGRFVFSLDTSVSTAYLQISSLKAEDTAVYYCARGPYAMDYWGQGTLVTVSS VL: DIQMTQSPSSLSASVGDRVTITCRASQDISNYLNWYQQKPGKAPKLLIYYTSSLLSGVPSRFSGSGSGTDYTLTISSLQPEDFATYYCQQYSKLPYTFGQGTKLEIK |  |  |  | reduce the ability of Gal3 to block insulin-dependent GLUT4 translocation
847.2B8: anti-Gal3 antibody (antibody, V domains shown) VH: QVQLKQSGPGLVQPSQSLSITCTVSGFSLINYGVHWVRQSPGKGLEWLGVIWSGGSTDYNAAFISRLSISKDNSKSQVFFKMNSLQADDTAIYYCARIYYYGRGYAMDYWGQGTSVTVSS VL: QILLSQSPAILSASPGEKVTMTCRASSSVTYMYWYQQKPGSSPQPWIYATSNLASGVPARFSGSGSGTSYSLTISRVEAEDAATYYCQQWSSNPLTFGAGTKLELK | not bind | not found to bind |  | 

Continued, in another order:

binding to hGAL3 when immobilized on HC200M chip [2] | binding to any of the tested Gal3 peptides [3] | epitope bin (mutual competitive binding for Gal3) [2] | Molecule | effect on Gal3 block of insulin-stimulated GLUT4 translocation [1]
 | not found to bind | 21 | 849.5H1: anti-Gal3 antibody (antibody, V domains shown) VH: QVQLKESGPVLVAPSQSLSITCTVSGFSLTSYGIHWVRQPPGKGLEWLGVIWAGGSTNYNSALMSRLSISKDNSKSQVFLKMNSLQIDDTAMYYCAKPPHDYDQAWFAYWGQGTLITVSA VL: DIQMNQSPSSLSASLGDTITITCHASQNINVWLSWYQQKPGNIPKLLIYQASNLHTGVPSRFSGRGSGTGFTLTISSLQPEDIATYYCQQGQSSPFTFGSGTKLEIK | 
not bind | not found to bind |  | 847.21B11: anti-Gal3 antibody (antibody, V domains shown) VH: QVQLKQSGPGLVAPSQSLSITCTVSGFSLTSYGVHWVRQPPGKGLEWLGIIWAGGSTNYNPALMSRLSISKDKSKSQVFLKMNSLKTDDTAMYYCARDRASLLRPGAMDYWGQGTSVTVSS VL: DIVMTQSQKFMSTSVGDRVSVTCKASQNVGINVAWYQQKPGQSPKALIYSASYRYSGVPDRFTGSGSGTDFTLTISNVQSEDLAEYFCQQYNSYPYTFGGGTKLEMK | 
 | not found to bind | 10 | 849.2D7: anti-Gal3 antibody (antibody, V domains shown) VH: QVQLQQSGPQLVRPGASVKISCKASGYSFTNYWMHWVKQRPGQGLEWIGMIDPSDSETRLNQKFKDKATLTVDKSSSTAYMQLSSPTSEDSAVYYCATGRPDYWGQGTTLTVSS VL: DIVMTQSHKFMSTSVGDRVSITCKASQDVSTAVAWYQQKPGQSPKLLIYWASTRHTGVPDRFTGSGSGTDYTLTISSVQAEDLALYYCQQHYSTPYTFGGGTKLEIK | 
 | not found to bind |  | 847.20H7: anti-Gal3 antibody (antibody, V domains shown) VH: QVQLQQSGAELVRPGASVNLSCKASGYTFTNYWMNWVKQRPGQGLEWVGMIDPSDSETHYNQMFKDKATLTIDKSSSIAYMQLSSLTSEDSAVYYCARWGAMDYWGQGTSVTVSS VL: DIVMTQSHKIMSTSVGDRVSITCKASQDVSTTVAWFQQKPGQSPKLLLYWASTRHTGVPDRFTGSGSGTDYTLTISSVQAEDLALYYCQQHYSPPFTFGSGTKLEIK | 
not bind | not found to bind |  | 847.15F9: anti-Gal3 antibody (antibody, V domains shown) VH: QVQMKQSGPGLVQPSQSLSITCTVSGFSLINYGVHWVRQSPGKGLEWLGVIWSGGSTDYNAAFISRLSISKDNSKSQVFFKMNSLQADDTAIYYCARIYYYGRGYAMDYWGQGTSVTVSS VL: QIVLSQSPAILSASPGEKVTMTCRASSSVTYMYWYQQKPGSSPQPWIYATSNLASGVPARFSGSGSGTSYSLTISRVEAEDAATYYCQQWSSNPLTFGAGTKLELK | 
 | not found to bind | CRD | 847.16D10: anti-Gal3 antibody (antibody, V domains shown) VH: QVQLQQSGAELVRPGASVKLSCKASGYTFTGYWLNWVKQRPGQGLEWIGMIDPSDSETHYNQVFKDKATMTVDRSSSTAYMQLSGLTSEDSAVYYCANSNYASGSWGQGTTLTVSS VL: QAVVTQESALTTSPGETVTLTCRSSTGAVTTSNYANWDQEKPDHLFTGLIGGTNNRAPGVPARFSGSLIGDKAALTITGAQTEDEAIYFCALWYSNHLVFGGGTKVTVL | 
